In US20080206264A1 one finds Kd data, which are given here for one molecule.

Bridge positions count the residues as written; N and C are the ends. Ends that are not written are not given here.

In this experiment the target is 447-52D Fv fragment. In words: fluorescence quenching of 447Fv upon titration with the peptide.

As usually defined, the Kd is the constant that tells how readily two partners part at equilibrium. Read a low Kd as higher affinity. As for CRKSIHCGPGRCFYTTGC (disulfide 1-18, 7-12) [R5A-M1 peptide (disulfide-constrained R5A mimic peptide 1)], the Kd was 10 nM.
